# Laboratory results reported in PMC8326426, “Resveratrol-induced Sirt1 phosphorylation by LKB1 mediates mitochondrial metabolism” (The Journal of Biological Chemistry, 2021).
# Positions count from the first letter of the chain named.
# T1: MBP-Sirt1 core domain, aa 234 to 510 (human, UniProt Q96EB6 234-510)
# T1 construct: Sirt1, human, deacetylase core domain, aa 234 to 510; MBP-tagged Sirt1 was made by subcloning human Sirt1 cDNA into pMal-c2X; also called MBP-tagged core domain of Sirt1; source: E. coli, purified
# T1 sequence (looked up): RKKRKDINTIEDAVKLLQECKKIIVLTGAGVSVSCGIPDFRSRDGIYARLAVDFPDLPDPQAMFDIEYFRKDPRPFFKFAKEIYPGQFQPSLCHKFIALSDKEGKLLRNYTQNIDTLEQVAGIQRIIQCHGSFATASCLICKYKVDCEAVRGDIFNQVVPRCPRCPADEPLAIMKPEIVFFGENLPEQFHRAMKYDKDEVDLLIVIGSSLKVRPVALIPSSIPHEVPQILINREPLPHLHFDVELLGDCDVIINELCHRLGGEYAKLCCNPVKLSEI
# T2: His-Sirt1 core domain, aa 234 to 510 (human, UniProt Q96EB6 234-510)
# T2 construct: Sirt1, human, deacetylase core domain, aa 234 to 510; His-tagged Sirt1 was made by subcloning human Sirt1 cDNA into pET28a; also called His-tagged Sirt1 core domain; source: E. coli Rosetta (DE3), eluted
# T2 sequence (looked up): T1 sequence (looked up)
# B1: GST-Sirt1 WT (C terminus), aa 511 to 747 (domain or fragment, human, UniProt Q96EB6 511-747, looked up)
# chain: TEKPPRTQKELAYLSELPPTPLHVSEDSSSPERTSPPDSSVIVTLLDQAAKSNDDLDVSESKGCMEEKPQEVQTSRNVESIAEQMENPDLKNVGSSTGEKNERTSVAGTVRKCWPNRVAKEQISRRLDGNQYLFLPPNRYIFHGAEVYSDSEDDVLSSSSCGSNSDSGTCQSPSLEEPMEDESEIEEFYNGLEDEPDVPERAGGAGFGTDGDDQEAINEAISVKQEVTDMNYPSNKS
# notes: Sirt1, human, C terminus, aa 511 to 747; GST-tagged Sirt1 was made by subcloning human Sirt1 cDNA into pGEX-6p-1; also called GST-Sirt1-C; GST-tagged C terminus of Sirt1; source: E. coli Rosetta (DE3), purified (glutathione-Sepharose 4B, eluted with reduced glutathione)
# B2: GST-Sirt1 3A mutant (C terminus), aa 511 to 747 (domain or fragment, human, UniProt Q96EB6 511-747, looked up)
# chain: B1 chain with S105A, S159A, S222A
# notes: Sirt1, human, C terminus, aa 511 to 747, Ser615, Ser669 and Ser732 replaced by Ala; source: E. coli Rosetta (DE3), purified (glutathione-Sepharose 4B, eluted with reduced glutathione)
# B3: GST-Sirt1 3D mutant (C terminus), aa 511 to 747 (domain or fragment, human, UniProt Q96EB6 511-747, looked up)
# chain: B1 chain with S105D, S159D, S222D
# notes: Sirt1, human, C terminus, aa 511 to 747, Ser615, Ser669 and Ser732 replaced by Asp; source: E. coli Rosetta (DE3), purified (glutathione-Sepharose 4B, eluted with reduced glutathione)
# B4: C-terminal truncation of Sirt1, WT (eluted competitor), aa 511 to 747 (domain or fragment, human, UniProt Q96EB6 511-747, looked up)
# chain: B1 chain
# notes: Sirt1, human, C terminus, aa 511 to 747; the methods name GST- and His-tagged Sirt1 truncations from E. coli; also called the C terminus of Sirt1; WT C terminus; source: eluted
# B5: C-terminal truncation of Sirt1, 3D mutant (eluted competitor), aa 511 to 747 (domain or fragment, human, UniProt Q96EB6 511-747, looked up)
# chain: B1 chain with S105D, S159D, S222D
# notes: Sirt1, human, C terminus, aa 511 to 747, Ser615, Ser669 and Ser732 replaced by Asp; also called 3D C terminus; source: eluted
# B6: GST-tagged LZ (leucine-zipper) domain of DBC1, aa 243 to 264 (domain or fragment, UniProt Q8N163 243-264, looked up)
# chain: LQRRYRSLLVPSDFLSVHLSWL
# notes: DBC1 (Deleted in Breast Cancer 1), leucine zipper, aa 243 to 264; also called GST-LZ; DBC1 LZ domain; source: E. coli, purified
# Target: T1, MBP-Sirt1 core domain, aa 234 to 510
# Test: pull-down; MBP pull-down: MBP-Sirt1 core domain purified from E. coli incubated with eluted GST-Sirt1 C terminus (WT, 3A or 3D); bound fraction immunoblotted
# Conditions: both partners purified
row,Binder,binding result
1,B1,binds
2,B2,binds
3,B3,binds

# Target: T2, His-Sirt1 core domain, aa 234 to 510
# Test: pull-down; competitive binding: 2 ug GST-LZ of DBC1 from E. coli, 2 ug eluted His-Sirt1 core domain, with or without 2 ug eluted C-terminal truncation of Sirt1 (WT or mutants), 4 h; bound fraction immunoblotted
# Conditions: both partners purified
row,Binder,binding result
1,B4,binds
2,B5,binds
3,B6,binds
